18 sequences from the NTF2 design screens of Basanta et al. (2020) can be followed below.

The data set in a line: protease stability score; higher = more stable; yeast display proteolysis, trypsin and chymotrypsin.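 Note: relative to predicted unfolded state with 0 unfolded-like and 1 meaning tenfold more protease.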
Turning to “SEEEEHAEELIRLELEALLTGDEEHMARNLDPNVRININGKDIVGREEVSRFLKHLRVRSIHIEIKDFRVIGNWLHVDGRVHFHGHFDGRKIDSTTQFHMILVKINGRWFIHSVKFQ”, the protease stability score was 2.6.
With “SEEEEHAKHIARLWMESFYTGDEHHMSHLLDPNVRIIIEIGDKSDEFHGREETVKWVRKYLREMRLKNFEIHDQRVFNGVANDDTIVHGNVDGRERNIRTHIIIVVVNGRVKEVKVEVK” the figure was 1.6.
On to “SEEEEHEKEVIKRIREAMLTGDEDTLRHLLDPNVRVNIDGVEIVGMEMILRHLREIRVSIKDLKVTHVRSVNGRVEADTRSHLIIIIGDKKYEEESETRFFILKIDGRWLLTTIEFK”, for which the protease stability score was found to be 1.49.
In the case of “SEEEEHIHRLARLYWRLWETGDEETLAHLMDPNVRQIIHVGDKEFHNVGREKIIKVTKHVFEKLGVKHIKIRDMRVINGVVEIDTEVNVDGRTFDTRIKVLIVDGRIHELRWIVE”, the protease stability score was 1.65.
On to “SEEEEHIREFWNLLLRAYRTGDEKQLRELFDPHVRIHINGKEIHGMEDMIRHIREIRVIITHLELREFSFFNGRAHVDGERDLRITVGEFHRSHRTDVTIITEKVNGQWRIEEVRVH”, for which the protease stability score was 1.46.
With “SEEEEHIREHSERFIEAWKTGDWEELSRMIDPHARIVVNGKEVHGRSDIERMLRETMEKMGANHIQEESVHYQGNKIILHETVNVGDKRLRLTIVIHVVNGKVRRVEFHIEQR” the figure was 2.17.
In turn, “SEEEEHLDHALKNIIDLIRTGDENLQRELFDPRVRLVVGDKEFHGWETVVHRLREMRFKDFHVRRERIVGDKVHIDVEVNGNVDGRDDVMRMEIRIDKVNGQWRTKNVILN” returned a protease stability score of 2.05.
“SEEEEHLLKWFEELITLLLTGDEDRLSELMDPNVRIEIGDKTLVGMEWANHDYTRKIRERGWRIEIIIRELRAQGDKVRARTELRIRFDGREITYETEMILVVVNGRFKRIETRVH” had a protease stability score of 1.46.
In turn, “SEEEEHSKFLAEILLELMRTGDWRTFEELVDPNARLEIIQGDFTIDIHGREEVSKFLKNEVEQFKNMRVELHRQSAQGNKLHIDGRLKVGDKSHELRIHINVINGKLKQVKIEID” showed a protease stability score of 1.72.
The sequence “SEEEEHSLKIARQWVENVLTGDEHLLRKLADPDTRIIVDGRHYHGWRQEHKVLEEIRIHDMFEKDVEVQGDKIYMNGTVDGEINGKRTRSDVDLIILVVDGRIKQVEINVH” gave a protease stability score of 1.12.
With “SEEEEHTHRISRRFWRFLVTGDEDALLKNADPHVRLVIGDKHSHGRENFKRLLREWLEELGAKHLHIRDLEVQGNKVHTHGEMTVNGRNIETHIELVVIDGRHHSMEFRIG” the figure was -0.021.
Consider “SEEEEHTRHMYELFWRILHTGDEKSFHELADPNVLLRVGDKNFHGREEAERFLHEYWERYKNMRIEMKTFDFQGNKVHSEGVININGVKIRSELELVVFDGRLHSVIVRHR”, for which the protease stability score is 2.43.
Regarding “SEEEEHVWEWAKLVIDLWQTGNEEIFKELVDPNARSEFDGVTIHGMHNDLKRIIEELREIRVRIEIHSVRVIDGVLDVDVKLRLHIGDKQREIKIRLHIVVIDGKLKSVHIDKH”, the protease stability score was determined as 1.9.
In turn, “SEEEEHWHTLAHMIVHWWLTGDEDAFMELADPHVRFEQGDYESVGMENVRERWRMIKEEIRIHEIRVHDVRFINGVIEVDTRLIRTFNGVREEVDYRVEIVEYNGRVKRVKLEIR” displayed a protease stability score of 1.33.
With “SEEEEIAERFKKLMFEATHTGDWHTFMRLADPHVRVDINGKERHGREHWVEHERRLGIDHTDIRIRREREINGVMHIDSQLILHFNGVTLTLDHKLILKKVDGKWILHELKVD” the figure was -0.054.
As to “SEEEEIAHRFRKTVVHALLTGDEDRLRELVDPNYRILIGDKELHGWKSMSEFTHEWRIDHVEIERESVFDGVAHHDIRVDTTVNGKRDTRIVRIIIQKVNGKWVIHSMEIH”, the protease stability score amounted to 0.53.
“SEEEEIARELSEEVYRHWHTGDFRMLERYFDPHVRIIYDGRDYHGREIASTVLRETNKEWRTESMEVKDVKFINGKLHVDISSDTLYNGKRVSTSIKIVSVKVDGQWVIHQMKYV” yielded a protease stability score of 1.1.
For the sequence “SEEEEIARKIADIFFKVMQTGDEDHWLELFDPHTRFESDFNGRTVEIHGRERVREWKRKLEEDLGLTRFEIILRDSHVVNGVIHMDIEVRINGKTRRWIIDLIVINGRVKSLRVEIR”, the protease stability score was found to be 1.15.
